Square brackets hold non-standard residues; d marks the D form. Ends that are not written are not given here. Bpa = N[C@@H](Cc1ccc(C(=O)c2ccccc2)cc1)C(=O)O; Phe(4-CN) = N#Cc1ccc(C[C@H](N)C(=O)O)cc1
Key:
trypsin [1] = target: T1, trypsin (Sus scrofa, UniProt P00761); assay: Bulk (in-solution) trypsin digestion of peptide substrate, RP-HPLC separation and MALDI-TOF mass spectrometry, SERS of separated fractions; format: biochemical; settings: for extent of substrate digestion by trypsin (RP-HPLC/MALDI-TOF): peptide 100 μg/ml, trypsin 3.3 μg/ml (1/30 w/w), 50 mM ammonium-bicarbonate pH 7.8, 37° C.; for change of 1003 cm^-1 phenylalanine SERS peak in cleaved fraction after trypsin cleavage: cleaved vs uncleaved fractions labelled on gold nanodome chips
T1 construct: purchased Promega V5111
Experimental: As a first step, the activity of the protease on the substrate in solution was monitored. RP-HPLC was used to separate the substrate from the digestion products, which are subsequently labelled on a nanodome platform. From the difference spectrum, the characteristic peaks of the cleaved-off and remaining fractions are derived. FIG. 4(a2-a4) depicts the results of this experiment for trypsin and its CALNNYGGGGVRGNF (100 μg/ml) (SEQ ID NO:3) substrate. The peptide was incubated with trypsin (3.3 μg/ml) at a 1/30 (w/w) ratio in a 50 mM ammonium-bicarbonate (pH 7.8) buffer in water, and separated with RP-HPLC (FIG. 4(a2)) after 0, 30 and 90 minutes of incubation. The RP-HPLC-separated peptides and their fragments were identified using MALDI-TOF mass spectrometry. […] The dimer formation is a consequence of the oxidation of the cysteine thiol groups upon which a disulphide bond is formed between two peptides. […] Subsequently, nanodome chips were labeled with cleaved and uncleaved fractions. […] Furthermore, the peaks at 618 cm^−1, 1030 cm^−1 and 1207 cm^−1 show a partial decrease, although their signal to noise ratio is low. All these peaks correspond to those attributed to phenylalanine (Table 1). From this experiment, it is concluded that the ratio between the 1003 cm^−1 peak and the 829-860 cm^−1 peaks (I1003/I829-860) is a correct metric for IF/IY, the cleavage of the substrate by trypsin.
The activity of trypsin on the peptides with unnatural aromatic amino acids was verified using HPLC/mass spectrometry, showing complete digestion of 100 μg/ml peptide after 1 hour incubation with a 4 μg/ml Trypsin concentration. Subsequently, cleaved and uncleaved fractions were labelled on a nanodome SERS substrate.

trypsin [2] = target: T1, trypsin; assay: Trypsin hydrolysis of unbound peptide observed through SERS spectra of a non-separated mixture; format: biochemical; settings: peptide 100 μg/ml, trypsin 2 μg/ml, 2 hours of incubation, no RP-HPLC separation
From the text: Apart from a thiol-gold interaction, N-terminal primary amines can also lead to a charge-based adsorption on metal surfaces (ref 39). This effect may be additive in the case of cysteine, but could lead to the adsorption of unwanted amino acids on the gold surface. In a second set of in-solution experiments, a similar trypsin was run—CALNNYGGGGVRGNF (SEQ ID NO:3) assay without separating the fractions by RP-HPLC (FIG. 5). One nanodome chip was labelled with a reference solution of the peptide (100 μg/ml), another with a solution of peptide (100 μg/ml) and trypsin (2 μg/ml) after 2 hours of incubation. […] Furthermore, the SERS and difference SERS-spectra shown in FIG. 5 confirm the findings of the RP-HPLC experiment in FIG. 4(a).
(§1) Spectra were acquired on a WITec Alpha 300 R+ confocal Raman microscope equipped with spectrometer using a 600 lpmm grating, a −70° C. cooled CCD camera (Andor iDus 401 BR-DD) and a 785 nm diode laser (Toptica, XTRA II). Raman spectra of the peptide powders were acquired using a Zeiss 100×/0.9 EC Epiplan NEOFLUAR; ∞/0 objective and a laser power of 100 mW, measured before the objective. SERS spectra were acquired through a Zeiss 63×/1.0 W-Plan Apochromat ∞/0 objective with 2 mW laser power. […]

trypsin [3] = target: T1, trypsin; assay: SERS-monitored trypsin hydrolysis of gold-nanodome bound peptides (with and without ovomucoid inhibitor); format: biochemical; settings: for decrease of SERS intensity ratio I1003/I829-860: gold-nanodome bound peptide
Experimental: In a third experimental setup, three CALNNYGGGGVRGNF (SEQ ID NO:3) labelled nanodome chips were incubated in a buffer without trypsin, with trypsin and with trypsin plus an ovomucoid inhibitor for 45 minutes (FIG. 6). […] On the chip with trypsin only, the surface bound peptides are cleaved, resulting in a decrease of 11003/1829-860 by 40-48%. […] Two possible origins are considered for the remaining signal at 1003 cm^−1. […] More likely, the remaining signal originates from peptides that are not accessible to the protease due to steric hindrance. This can be a result of a too dense monolayer of peptides (refs 11, 23) or inaccessible parts of the nanodome geometry. Especially in the latter case, the inaccessible peptides are probably located in the nanodome gaps and will contribute disproportionally strong to the SERS signal.
Spectra were acquired on a WITec Alpha 300 R+ confocal Raman microscope equipped with spectrometer using a 600 lpmm grating, a −70° C. cooled CCD camera (Andor iDus 401 BR-DD) and a 785 nm diode laser (Toptica, XTRA II). Raman spectra of the peptide powders were acquired using a Zeiss 100×/0.9 EC Epiplan NEOFLUAR; ∞/0 objective and a laser power of 100 mW, measured before the objective. SERS spectra were acquired through a Zeiss 63×/1.0 W-Plan Apochromat ∞/0 objective with 2 mW laser power. For real-time monitoring of enzymatic activity, the chip was placed in a metal petri dish filled with 1 ml 50 mM ammonium bicarbonate buffer (pH 7.8) inside a stage-top incubator at 37° C. (Okolab). Because of signal degradation upon laser illumination, each trace is the median spectrum of a spatially distributed map of 10×10 pixels in a 20×20 μm area with an integration time of 1 s on each point. In the real-time assay, every next trace was mapped on a different location on the SERS platform. […]
(§2) Starting from the 10×10 individual spectra, WITec Project Four® was used for removing cosmic rays. […] 11003 and 1829-860 were calculated by integrating the peaks at their respective positions and subtracting the background with a linear fit for the individual spectra. […]

trypsin [4] = target: T1, trypsin; assay: Real-time SERS observation of trypsin activity on gold-nanodome bound peptide; format: biochemical
Experimental: Finally, CALNNYGGGGVRGNF (SEQ ID NO:3) labelled chips were incubated with trypsin under the Raman microscope for a real-time acquisition of SERS spectra. […] A new spectrum was acquired every 2-3 minutes with an integration time of 100 seconds. A relative decrease of I1003 versus the peaks at 829, 860, 948, 1248, 1330, 1603 and 1677 cm^−1 is visible within the first minutes after adding 0.2 μg/ml trypsin (8.6 nM) to a total volume of 1 ml (8.6 pmol), in agreement with Table 1 and the earlier experiments described in this work. SERS spectra after 2 minutes and 30 minutes of trypsin incubation show a further reduction of I1003 and I1206 with increasing incubation time (FIG. 7 (b)). […]
as §1, with “objective.” for “objective. SERS spectra were acquired through a Zeiss 63×/1.0 W-Plan Apochromat ∞/0 objective with 2 mW laser power.”
as §2

endoproteinase Glu-C = endoproteinase Glu-C (Staphylococcus aureus, UniProt P0C1U8)
endoproteinase Glu-C, sequence (P0C1U8 69-336): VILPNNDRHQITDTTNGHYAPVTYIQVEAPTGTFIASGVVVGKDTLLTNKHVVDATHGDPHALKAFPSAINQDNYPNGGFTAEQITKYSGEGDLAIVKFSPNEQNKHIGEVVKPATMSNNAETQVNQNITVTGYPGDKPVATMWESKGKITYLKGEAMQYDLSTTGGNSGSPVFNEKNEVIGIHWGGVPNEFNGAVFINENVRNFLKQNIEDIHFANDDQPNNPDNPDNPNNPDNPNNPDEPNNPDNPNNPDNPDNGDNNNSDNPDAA
Experimental: Peptides were first dissolved to 100 μg/μl in DMF and further diluted to 100 μg/ml in either a 10% acetonitrile/water mixture for labelling or a 50 mM ammonium bicarbonate buffer (pH 7.8) for bulk digestion experiments. Prior to labelling the chips with the peptides, they were cleaved into pieces of a few mm^2 and cleaned by sonication in acetone, rinsed with isopropyl alcohol and water and dried with under a stream of nitrogen. Next, remaining organic contaminants were removed in an 02 plasma, which also renders the surface hydrophilic (120 s, PVA-TEPLA GIGAbatch 310 M, 6000 sccm O2, 600 W, 750 mTorr). Immediately afterwards, the chips were immersed in separate wells of a polypropylene 96-well plate, using 100 μl of a 100 μg/ml peptide solution in 10% acetonitrile in water. After overnight incubation, the chips were rinsed excessively with deionized water. […]
After incubation for a specific time at 37° C., 750 μl of a solution with 100 μg/ml substrate and 3.3 μg/ml trypsin or endoproteinase Glu-C in 50-100 mM ammonium bicarbonate was injected in a C-18 reversed phase high-performance liquid chromatography column (Macherey-Nagel) and eluted by a water/acetonitrile gradient (Akta Purifier, GE). The molecular weight of separated fractions was determined using matrix-assisted laser desorption/ionisation time-of-flight mass spectrometry (Bruker MALDI-TOF).

T1 sequence (P00761 9-231): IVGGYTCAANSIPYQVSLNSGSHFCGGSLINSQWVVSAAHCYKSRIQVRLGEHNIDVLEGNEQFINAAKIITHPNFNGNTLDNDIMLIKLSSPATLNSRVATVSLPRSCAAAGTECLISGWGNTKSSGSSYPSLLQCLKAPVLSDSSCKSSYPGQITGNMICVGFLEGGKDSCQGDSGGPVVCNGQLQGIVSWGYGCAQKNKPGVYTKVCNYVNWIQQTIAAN

For “CALNNYGGGGVRGNF (trypsin substrate) [trypsin substrate peptide with Tyr and Phe SERS reporters]”, the “extent of substrate digestion by trypsin (RP-HPLC/MALDI-TOF)” value (trypsin [1]; 30 minutes incubation) was “almost fully digested”, the “extent of substrate digestion by trypsin (RP-HPLC/MALDI-TOF)” value (trypsin [1]; 90 minutes incubation) was “fully cleaved” and the “change of 1003 cm^-1 phenylalanine SERS peak in cleaved fraction after trypsin cleavage” value (trypsin [1]) was “full disappearance”. For the same molecule, the “extent of digestion by trypsin, from lack of 1003 cm^-1 phenylalanine SERS peak” value (trypsin [2]) was “fully digested”, the “decrease of SERS intensity ratio I1003/I829-860” value (trypsin [3]; 45 minutes incubation) was 40-48% and the “decrease of SERS intensity ratio I1003/I829-860” value (trypsin [3]; trypsin) was ≤ 53%. The “time course of digestion of gold-bound peptide in real-time monitoring” value (trypsin [4]; 8.6 nM trypsin concentration) was “immediate digestion within the first two minutes” and the “cleavage of accessible surface-bound substrate in real time (I1003/I829-860 versus time)” value (trypsin [4]; trypsin concentrations ranging from 1 to 0.2 μg/ml, 37° C., spectrum every 2-3 minutes) was “most of the accessible substrate was cleaved within the time-span of the first measurement”.

In the case of CALNNYGGGGNNESWH, the “conversion of substrate to products by endoproteinase Glu-C (RP-HPLC/mass spectrometry)” value (endoproteinase Glu-C; 4 hours of incubation, peptide 100 μg/ml, endoproteinase Glu-C 3.3 μg/ml) is reported as “almost full conversion” and the “change of 754 cm^-1 and 1356 cm^-1 (tryptophan) SERS peaks upon endoproteinase Glu-C cleavage” value (endoproteinase Glu-C; cleaved peptide vs uncleaved dimer bound to nanodome chips) is reported as “disappearance”.

In the case of “CALNN(bzF)GGGGVRGNF (CALNN[Bpa]GGGGVRGNF) [trypsin substrate analogue, tyrosine replaced by benzoyl-phenylalanine]”, the “change of 1003 cm^-1 phenylalanine SERS peak in cleaved fraction after trypsin cleavage” value (trypsin [1]) is reported as “decrease”.

With “CALNN(cnF)GGGGVRGNF (CALNN[Phe(4-CN)]GGGGVRGNF) [trypsin substrate analogue, tyrosine replaced by 4-cyano-phenylalanine]” the “change of 1003 cm^-1 phenylalanine SERS peak in cleaved fraction after trypsin cleavage” value (trypsin [1]) was “complete disappearance”.

B1: ovomucoid inhibitor: Ovomucoid (Type II-0) Trypsin inhibitor from chicken egg white (Sigma, T9253) (protein, UniProt P01005 25-210, looked up)
Ovomucoid: AEVDCSRFPNATDKEGKDVLVCNKDLRPICGTDGVTYTNDCLLCAYSIEFGTNISKEHDGECKETVPMNCSSYANTTSEDGKVMVLCNRAFNPVCGTDGVTYDNECLLCAHKVEQGASVDKRHDGGCRKELAAVSVDCSEYPKPDCTAEDRPLCGSDNKTYGNKCNFCNAVVESNGTLTLSHFGKC
For B1, the “inhibition of tryptic cleavage of surface-bound peptide (SERS spectrum vs reference chip)” value (trypsin [3]; trypsin plus ovomucoid inhibitor, 45 minutes, inhibitor 100 μg/ml, substrate CALNNYGGGGVRGNF on nanodome chip) was “full blockade of tryptic cleavage”.

Source: patent US20210079444A1, “LABEL FREE DETECTION OF PROTEASE ACTIVITY” (VIB VZW, priority 2017, published 2021)
